This note sets out measurements from US6670167.

For data set [1], the target named is T1, Syntide-2, synthetic substrate peptide PLARTLSVAGLPGKK
T1 chain: PLARTLSVAGLPGKK

For data set [2], the target named is T2, N-terminus acetylated Syntide-2.
T2 chain: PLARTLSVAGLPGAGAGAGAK

The target of another data set is T3, Biotin-Syntide-2.
T3 chain: KAGAGPLARTLSVAGLPGK

B1: Full Length Chk1 (amino acids 1-476 of SEQ ID NO. 2), preparation HA2-013 (protein)
chain: MAVPFVEDWDLVGTLGEGAYGEVQLAVNRVTEEAVAVKIVDMKRAVDCPENIKKEICINKMLNHENVVKFYGHRREGNIQYLFLEYCSGGELFDRIEPDIGMPEPDAQRFFHQLMAGVVYLHGIGITHRDIKPENLLLDERDNLKISDFGLATVFRYNNRERLLNKMCGTLPYVAPELLKRREFHAEPVDVWSCGIVLTAMLAGELPWDQPSDSCQEYSDWKEKKTYLNPWKKIDSAPLALLHKILVENPSARITIPDIKKDRWYNKPLKKGAKRPRVTSGGVSESPSGFSKHIQSNLDFSPVNSASSEENVKYSSSQPEPRTGLSLWDTSPSYIDKLVQGISFSQPTCPDHMLLNSGLLGTPGSSQNPWQRLVKRMTRFFTKLDADKSYQCLKETCEKLQYQWKKSCMNQVTISTTDRRNNKLIFKVNLLEMDDKILVDFRLSKGDGLEFKRHFLKIKGKLIDIVSSQKVWLPATHHHHHH
Take B1: in data set [1], the Activity is recorded as 1 (control) and the Rate/min (/min (at 75 nM enzyme)) is 0.019.

B2: Kinase Domain Chk1 (1-289), C-terminally 6xHis-tagged (protein)
chain: MAVPFVEDWDLVGTLGEGAYGEVQLAVNRVTEEAVAVKIVDMKRAVDCPENIKKEICINKMLNHENVVKFYGHRREGNIQYLFLEYCSGGELFDRIEPDIGMPEPDAQRFFHQLMAGVVYLHGIGITHRDIKPENLLLDERDNLKISDFGLATVFRYNNRERLLNKMCGTLPYVAPELLKRREFHAEPVDVWSCGIVLTAMLAGELPWDQPSDSCQEYSDWKEKKTYLNPWKKIDSAPLALLHKILVENPSARITIPDIKKDRWYNKPLKKGAKRPRVTSGGVSESPSGHHHHHH
With B2, the Activity in data set [2] was 72%; in the data set with Biotin-Syntide-2, 67%. In data set [1], the Rate/min (/min (at 7.3 nM enzyme)) was 0.02.
